Measurements published in US20120045459.

Molecular target: phosphotyrosine peptide (Upstate)

B1: GST-tagged recombinant PTPsigma catalytic fragment (PTPRS-CTF; BC104812 aa1156-1501) (protein)
chain: IVMVPLRKSRGGQFLTPLGSPEDMDLEELIQDISRLQRRSLRHSRQLEVPRPYIAARFSVLPPTFHPGDQKQYGGFDNRGLEPGHRYVLFVLAVLQKSEPTFAASPFSDPFQLDNPDPQPIVDGEEGLIWVIGPVLAVVFIICIVIAILLYKNKPDSKRKDSEPRTKCLLNNADLAPHHPKDPVEMRRINFQTPDSGLRSPLREPGFHFESMLSHPPIPIADMAEHTERLKANDSLKLSQEYESIDPGQQFTWEHSNLEVNKPKNRYANVIAYDHSRVILQPIEGIMGSDYINANYVDGYRCQNAYIATQGPLPETFGDFWRMVWEQRSATIVMMTRLEEKSRIKC
in vitro phosphatase activity (malachite green, released phosphate): exhibiting significant activity against a tyrosine-phosphorylated peptide (p-Tyr)

B2: PTP1B (from Upstate) (protein)
chain: MEMEKEFEQIDKSGSWAAIYQDIRHEASDFPCRVAKLPKNKNRNRYRDVSPFDHSRIKLHQEDNDYINASLIKMEEAQRSYILTQGPLPNTCGHFWEMVWEQKSRGVVMLNRVMEKGSLKCAQYWPQKEEKEMIFEDTNLKLTLISEDIKSYYTVRQLELENLTTQETREILHFHYTTWPDFGVPESPASFLNFLFKVRESGSLSPEHGPVVVHCSAGIGRSGTFCLADTCLLLMDKRKDPSSVDIKKVLLEMRKFRMGLIQTADQLRFSYLAVIEGAKFIMGDSSVQDQWKELSHEDLEPPPEHIPPPPRPPKRILEPHN
in vitro phosphatase activity (malachite green, released phosphate): PTP1B, a bona fide PTPase, dephosphorylated p-Tyr exclusively

B3: GST-tagged recombinant full-length MTMR6 (NM-004685.2) (protein)
chain: MEHIRTTKVEQVKLLDRFSTSNKSLTGTLYLTATHLLFIDSHQKETWILHHHIASVEKLALTTSGCPLVIQCKNFRTVHFIVPRERDCHDIYNSLLQLSKQAKYEDLYAFSYNPKQNDSERLQGWQLIDLAEEYKRMGVPNSHWQLSDANRDYKICETYPRELYVPRIASKPIIVGSSKFRSKGRFPVLSYYHQDKEAAICRCSQPLSGFSARCLEDEHLLQAISKANPVNRYMYVMDTRPKLNAMANRAAGKGYENEDNYSNIRFQFVGIENIHVMRSSLQKLLEVNGTKGLSVNDFYSGLESSGWLRHIKAVMDAAIFLAKAITVENASVLVHCSDGWDRTSQVCSLGSLLLDSYYRTIKGFMVLIEKDWISFGHKFSERCGQLDGDPKEVSPVFTQFLECVWHLTEQFPQAFEFSEAFLLQIHEHIHSCQFGNFLGNCQKEREELKLKEKTYSLWPFLLEDQKKYLNPLYSSESHRFTVLEPNTVSFNFKFWRNMYHQFDRTLHPRQSVFNIIMNMNEQNKQLEKDIKDLESKIKQRKNKQTDGILTKELLHSVHPESPNLKTSLCFKEQTLLPVNDALRTIEGSSPADNRYSEYAEEFSKSEPAVVSLEYGVARMTC
in vitro phosphatase activity (malachite green, released phosphate): only negligible activity against p-Tyr
